Source: patent US11821042B2, “Targeting chromosomal instability and downstream cytosolic DNA signaling for cancer treatment” (Cornell University, priority 2017, dated 2023)

B1: MCAK/Kif2c: kinesin-13 protein, human sequence SEQ ID NO:3 or 7, overexpressed in tumor cells (protein, listed as Homo sapiens)
chain: MAMDSSLQARLFPGLAIKIQRSNGLIHSANVRTVNLEKSCVSVEWAEGGATKGKEIDFDDVAAINPELLQLLPLHPKDNLPLQENVTIQKQKRRSVNSKIPAPKESLRSRSTRMSTVSELRITAQENDMEVELPAAANSRKQFSVPPAPTRPSCPAVAEIPLRMVSEEMEEQVHSIRGSSSANPVNSVRRKSCLVKEVEKMKNKREEKKAQNSEMRMKRAQEYDSSFPNWEFARMIKEFRATLECHPLTMTDPIEEHRICVCVRKRPLNKQELAKKEIDVISIPSKCLLLVHEPKLKVDLTKYLENQAFCFDFAFDETASNEVVYRFTARPLVQTIFEGGKATCFAYGQTGSGKTHTMGGDLSGKAQNASKGIYAMASRDVFLLKNQPCYRKLGLEVYVTFFEIYNGKLFDLLNKKAKLRVLEDGKQQVQVVGLQEHLVNSADDVIKMLDMGSACRTSGQTFANSNSSRSHACFQIILRAKGRMHGKFSLVDLAGNERGADTSSADRQTRMEGAEINKSLLALKECIRALGQNKAHTPFRESKLTQVLRDSFIGENSRTCMIATISPGISSCEYTLNTLRYADRVKELSPHSGPSGEQLIQMETEEMEACSNGALIPGNLSKEEEELSSQMSSFNEAMTQIRELEEKAMEELKEIIQQGPDWLELSEMTEQPDYDLETFVNKAESALAQQAKHFSALRDVIKALRLAMQLEEQASRQISSKKRPQ
B2: Dnase2: Dnase2 overexpressed using a pLenti-GIII-CMV-RFP-2A-Puro plasmid (protein, UniProt O00115 19-360, looked up)
Deoxyribonuclease-2-alpha: CYGDSGQPVDWFVVYKLPALRGSGEAAQRGLQYKYLDESSGGWRDGRALINSPEGAVGRSLQPLYRSNTSQLAFLLYNDQPPQPSKAQDSSMRGHTKGVLLLDHDGGFWLVHSVPNFPPPASSAAYSWPHSACTYGQTLLCVSFPFAQFSKMGKQLTYTYPWVYNYQLEGIFAQEFPDLENVVKGHHVSQEPWNSSITLTSQAGAVFQSFAKFSKFGDDLYSGWLAAALGTNLQVQFWHKTVGILPSNCSDIWQVLNVNQIAFPGPAGPSFNSTEDHSKWCVSPKGPWTCVGDMNRNQGEEQRGGGTLCAQLPALWKAFQPLVKNYQPCNGMARKPSRAYKI
B3: Kif2a: third microtubule-depolymerizing kinesin-13 protein lacking kinetochore or centromere localization domains; control (protein, UniProt O00139 1-706, looked up)
Kinesin-like protein KIF2A: MATANFGKIQIGIYVEIKRSDGRIHQAMVTSLNEDNESVTVEWIENGDTKGKEIDLESIFSLNPDLVPDEEIEPSPETPPPPASSAKVNKIVKNRRTVASIKNDPPSRDNRVVGSARARPSQFPEQSSSAQQNGSVSDISPVQAAKKEFGPPSRRKSNCVKEVEKLQEKREKRRLQQQELREKRAQDVDATNPNYEIMCMIRDFRGSLDYRPLTTADPIDEHRICVCVRKRPLNKKETQMKDLDVITIPSKDVVMVHEPKQKVDLTRYLENQTFRFDYAFDDSAPNEMVYRFTARPLVETIFERGMATCFAYGQTGSGKTHTMGGDFSGKNQDCSKGIYALAARDVFLMLKKPNYKKLELQVYATFFEIYSGKVFDLLNRKTKLRVLEDGKQQVQVVGLQEREVKCVEDVLKLIDIGNSCRTSGQTSANAHSSRSHAVFQIILRRKGKLHGKFSLIDLAGNERGADTSSADRQTRLEGAEINKSLLALKECIRALGRNKPHTPFRASKLTQVLRDSFIGENSRTCMIATISPGMASCENTLNTLRYANRVKELTVDPTAAGDVRPIMHHPPNQIDDLETQWGVGSSPQRDDLKLLCEQNEEEVSPQLFTFHEAVSQMVEMEEQVVEDHRAVFQESIRWLEDEKALLEMTEEVDYDVDSYATQLEAILEQKIDILTELRDKVKSFRAALQEEEQASKQINPKRPRAL
B4: Lamin B2: mCherry-Lamin B2 overexpressed to stabilize micronuclear envelopes (protein, UniProt Q03252 1-617, looked up)
Lamin-B2: MSPPSPGRRREQRRPRAAATMATPLPGRAGGPATPLSPTRLSRLQEKEELRELNDRLAHYIDRVRALELENDRLLLKISEKEEVTTREVSGIKALYESELADARRVLDETARERARLQIEIGKLRAELDEVNKSAKKREGELTVAQGRVKDLESLFHRSEVELAAALSDKRGLESDVAELRAQLAKAEDGHAVAKKQLEKETLMRVDLENRCQSLQEELDFRKSVFEEEVRETRRRHERRLVEVDSSRQQEYDFKMAQALEELRSQHDEQVRLYKLELEQTYQAKLDSAKLSSDQNDKAASAAREELKEARMRLESLSYQLSGLQKQASAAEDRIRELEEAMAGERDKFRKMLDAKEQEMTEMRDVMQQQLAEYQELLDVKLALDMEINAYRKLLEGEEERLKLSPSPSSRVTVSRATSSSSGSLSATGRLGRSKRKRLEVEEPLGSGPSVLGTGTGGSGGFHLAQQASASGSVSIEEIDLEGKFVQLKNNSDKDQSLGNWRIKRQVLEGEEIAYKFTPKYILRAGQMVTVWAAGAGVAHSPPSTLVWKGQSSWGTGESFRTVLVNADGEEVAMRTVKKSSVMRENENGEEEEEEAEFGEEDLFHQQGDPRTTSRGC
modifications: mCherry fusion
notes: mCherry-Lamin B2 overexpressed to stabilize micronuclear envelopes
B5: Kif2b: kinesin-13 protein, human sequence SEQ ID NO:1, overexpressed in tumor cells (protein, listed as Homo sapiens)
chain: MASQFCLPESPCLSPLKPLKPHFGDIQEGIYVAIQRSDKRIHLAVVTEINRENYWVTVEWVEKAVKKGKKIDLETILLLNPALDSAEHPMPPPPLSPLALAPSSAIRDQRTATKWVAMIPQKNQTASGDSLDVRVPSKPCLMKQKKSPCLWEIQKLQEQREKRRRLQQEIRARRALDVNTRNPNYEIMHMIEEYRRHLDSSKISVLEPPQEHRICVCVRKRPLNQRETTLKDLDIITVPSDNVVMVHESKQKVDLTRYLQNQTFCFDHAFDDKASNELVYQFTAQPLVESIFRKGMATCFAYGQTGSGKTYTMGGDFSGTAQDCSKGIYALVAQDVFLLLRNSTYEKLDLKVYGTFFEIYGGKVYDLLNWKKKLQVLEDGNQQIQVVGLQEKEVCCVEEVLNLVEIGNSCRTSRQTPVNAHSSRSHAVFQIILKSGRIMHGKFSLVDLAGNERGADTTKASRKRQLEGAEINKSLLALKECILALGQNKPHTPFRASKLTLVLRDSFIGQNSSTCMIATISPGMTSCENTLNTLRYANRVKKLNVDVRPYHRGHYPIGHEAPRMLKSHIGNSEMSLQRDEFIKIPYVQSEEQKEIEEVETLPTLLGKDTTISGKGSSQWLENIQERAGGVHHDIDFCIARSLSILEQKIDALTEIQKKLKLLLADLHVKSKVE

Key:
MDA-MB-231 cells [1] = assay: Intracardiac injection metastasis model, bioluminescence imaging and disease-specific survival; format: in vivo, mice; settings: intracardiac injection of MDA-MB-231 cells expressing the protein, FIG. 2E
Method: Animal experiments were performed in accordance with protocols approved by the Weill Cornell Medicine Institutional Animal Care and Use Committee. […] There was no need to randomize animals. Investigators were not blinded to group allocation. Intracardiac injection was performed as previously described (Chen et al. Nature 533, 493-498 (2016)). Briefly, cells were trypsinized and washed with PBS and a 1×10^5 cells (in 100 μl of PBS) were injected into the left cardiac ventricle of female athymic 6-7-week-old athymic nude (nu/nu) mice (Jackson Laboratory strain 002019). Mice were then immediately injected with D-luciferin (150 mgkg^−1) and subjected to bioluminescence imaging (BLI) using tan IVIS Spectrum Xenogen instrument (Caliper Life Sciences) to ensure systemic dissemination of tumor cells. Metastatic burden was measured at week 5 after injection using BLI and in the case of MDA-MB-231 mice BLI images were taken every 1-2 weeks for up to 17 weeks. BLI images were analyzed using Living Image Software v.2.50. Disease-specific survival endpoint was met when the mice died or met the criteria for euthanasia under the IACUC protocol and had radiographic evidence of metastatic disease. For Orthotopic tumor implantation, 2.5×10^5 cells in 50p of PBS were mixed 1:1 with Matrigel (BD Biosciences) and injected into the fourth mammary fat pad. Only one tumor was implanted per animal. Primary tumors were surgically excited when they reached ˜1.5 cm in the largest dimension and metastatic dissemination was assessed using BLI imaging at 1-week to 3-week intervals for up to 30 weeks. Distant metastasis-free survival endpoint was met when BLI signal was seen outside of site of primary tumor transplantation. To derive short-term culture from primary tumors and metastases, anesthetized animals (isofluorane) were imaged then sacrificed. Ex-vivo BLI was subsequently performed on harvested organs to define the precise location of the metastatic lesion. Primary tumors and metastases were subsequently mechanically dissociated and cultured in DMEM with selection media to select for tumor cells. […]

H2030 cells = assay: Chromosome missegregation in anaphase cells; format: cell-based, human; settings: overexpression in H2030 cells
Method: (§1) Primary tumor specimens were analyzed from 60 patients with head and neck squamous cell carcinoma (HNSCC) (Chung et al. Cancer Cell 5, 489-500 (2004)). Forty patients had Hematoxylin and Eosin-stained (H&E) primary tumor samples of sufficient quality for high-resolution microscopy analysis. Analysis was restricted to cells fixed while undergoing anaphase as previously described (Bakhoun et al. Clin. Cancer Res. 17, 7704-7711 (2011); Zaki et al. Cancer 120, 1733-1742 (2014)). Chromosome missegregation was defined by hematoxylin staining presence in between the remaining segregating chromosomes during anaphase and it was reported as the percentage of cells undergoing anaphase with evidence of chromosome missegregation. Clinical lymph node status was defined by clinical examination or radiographic evidence of lymph node tumor involvement (Chung et al. Cancer Cell 5, 489-500 (2004)).
(§2) Cell fixation and antibody staining were performed as described (Bakhoun et al. Nat Commun 6, 5990 (2015)). Briefly, cells were fixed with ice-cold (−30 C) methanol for 15 minutes—when staining for centromeres, centrosomes, cGAS, Vimentin, β-actin, or α-tubulin—or 4% paraformaldehyde—when staining for RelB, p65, IRF3, ssDNA, dsDNA, CoxIV, or β-catenin. Subsequently, cells were permeabilized using 1% triton for 4 minutes. See Table 1 for antibody information.
(§3) To determine whether chromosomal instability is causally involved in metastasis, we devised a genetic approach (Bakhoun et al., Nat. Cell Biol. 11, 27-35 (2009); Bakhoun et al., Nat Commun 6, 5990 (2015)) to alter the rate of chromosome missegregation in transplantable tumor models of human TNBC (MDA-MB-231) and lung adenocarcinoma (H2030). […] These cells, with unperturbed chromosome segregation rates, are referred to a as CIN-medium cells. […] As an important control, Kif2a was overexpressed, Kif2a is a third member of the microtubule-depolymerizing kinesin-13 proteins that lacks any kinetochore or centromere localization domains (Ems-McClung et al. Semin. Cell Dev. Biol. 21, 276-282 (2010)).

MDA-MB-231 cells [2] = assay: Chromosome missegregation in anaphase cells; format: cell-based, human; settings: overexpression in MDA-MB-231 cells
Method: as §1, §2, §3

cytosolic DNA = assay: Cytosolic dsDNA and ssDNA staining after selective plasma membrane permeabilization; format: cell-based, human; settings: after overexpression of Dnase2
Method: as §2
For selective plasma membrane permeabilization used for cytosolic dsDNA and ssDNA staining, cells were treated with 0.02% saponin for 5 minutes after fixation. For single-stranded (Thermo Fisher FEREN0321) and double stranded (Life Technologies—EN0771)-specific nuclease treatment, cells were also permeabilized with 0.02% saponin for 2 minutes and treated with either nucleases for 10 minutes before fixation using 4% paraformaldehyde. TBS-BSA was used as a blocking agent during antibody staining. DAPI was added together with secondary antibodies. Cells were mounted with Prolong Diamond Antifade Mountant (Life Technologies—P36961).

cGAS = cGAS localization to micronuclei by immunofluorescence; format: cell-based, human; settings: Lamin B2 overexpression in dnMCAK cells
Method: as §2

Row | Molecule | disease-specific survival of mice (MDA-MB-231 cells [1]) | chromosome segregation errors during anaphase (H2030 cells) | chromosome segregation errors during anaphase (MDA-MB-231 cells [2]) | cytosolic dsDNA staining signal (cytosolic DNA) | relative fraction of micronuclei with cGAS staining (cGAS)
1 | B1 | most survival | significant suppression | significant suppression |  | 
2 | B2 |  |  |  | disappeared | 
3 | B3 | middle levels of survival | no effect | no effect |  | 
4 | B4 |  |  |  |  | significantly diminished
5 | B5 | most survival | significant suppression | significant suppression |  | 
